Measurements reported in IntAct's records for PubMed 31515488.

B1: E3 ubiquitin-protein ligase MYLIP (Homo sapiens), Q8WY64 (parent)
chain: MLCYVTRPDAVLMEVEVEAKANGEDCLNQVCRRLGIIEVDYFGLQFTGSKGESLWLNLRNRISQQMDGLAPYRLKLRVKFFVEPHLILQEQTRHIFFLHIKEALLAGHLLCSPEQAVELSALLAQTKFGDYNQNTAKYNYEELCAKELSSATLNSIVAKHKELEGTSQASAEYQVLQIVSAMENYGIEWHSVRDSEGQKLLIGVGPEGISICKDDFSPINRIAYPVVQMATQSGKNVYLTVTKESGNSIVLLFKMISTRAASGLYRAITETHAFYRCDTVTSAVMMQYSRDLKGHLASLFLNENINLGKKYVFDIKRTSKEVYDHARRALYNAGVVDLVSRNNQSPSHSPLKSSESSMNCSSCEGLSCQQTRVLQEKLRKLKEAMLCMVCCEEEINSTFCPCGHTVCCESCAAQLQSCPVCRSRVEHVQHVYLPTHTSLLNLTVI
partner: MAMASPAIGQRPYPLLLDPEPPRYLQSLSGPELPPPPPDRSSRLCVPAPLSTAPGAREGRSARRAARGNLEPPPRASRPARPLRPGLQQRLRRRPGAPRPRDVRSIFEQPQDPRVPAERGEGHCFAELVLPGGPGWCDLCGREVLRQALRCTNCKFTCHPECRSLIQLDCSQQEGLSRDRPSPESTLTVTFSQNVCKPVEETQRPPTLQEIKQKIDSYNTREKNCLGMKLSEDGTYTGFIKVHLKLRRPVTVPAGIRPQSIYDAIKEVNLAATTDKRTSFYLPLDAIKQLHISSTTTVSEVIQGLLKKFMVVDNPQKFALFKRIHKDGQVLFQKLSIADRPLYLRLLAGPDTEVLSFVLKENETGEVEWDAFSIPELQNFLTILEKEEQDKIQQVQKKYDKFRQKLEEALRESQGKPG
B2: Golgin-45 (Homo sapiens), Q9H2G9 (parent)
chain: MTTKNLETKVTVTSSPIRGAGDGMETEEPPKSVEVTSGVQSRKHHSLQSPWKKAVPSESPGVLQLGKMLTEKAMEVKAVRILVPKAAITHDIPNKNTKVKSLGHHKGEFLGQSEGVIEPNKELSEVKNVLEKLKNSERRLLQDKEGLSNQLRVQTEVNRELKKLLVASVGDDLQYHFERLAREKNQLILENEALGRNTAQLSEQLERMSIQCDVWRSKFLASRVMADELTNSRAALQRQNRDAHGAIQDLLSEREQFRQEMIATQKLLEELLVSLQWGREQTYSPSVQPHSTAELALTNHKLAKAVNSHLLGNVGINNQKKIPSTVEFCSTPAEKMAETVLRILDPVTCKESSPDNPFFESSPTTLLATKKNIGRFHPYTRYENITFNCCNHCRGELIAL
B3: Dynein light chain 2, cytoplasmic (Homo sapiens), Q96FJ2 (parent)
chain: MSDRKAVIKNADMSEDMQQDAVDCATQAMEKYNIEKDIAAYIKKEFDKKYNPTWHCIVGRNFGSYVTHETKHFIYFYLGQVAILLFKSG
B4: Protein LDOC1 (Homo sapiens), O95751 (parent)
chain: MVDELVLLLHALLMRHRALSIENSQLMEQLRLLVCERASLLRQVRPPSCPVPFPETFNGESSRLPEFIVQTASYMLVNENRFCNDAMKVAFLISLLTGEAEEWVVPYIEMDSPILGDYRAFLDEMKQCFGWDDDEDDDDEEEEDDY
partner: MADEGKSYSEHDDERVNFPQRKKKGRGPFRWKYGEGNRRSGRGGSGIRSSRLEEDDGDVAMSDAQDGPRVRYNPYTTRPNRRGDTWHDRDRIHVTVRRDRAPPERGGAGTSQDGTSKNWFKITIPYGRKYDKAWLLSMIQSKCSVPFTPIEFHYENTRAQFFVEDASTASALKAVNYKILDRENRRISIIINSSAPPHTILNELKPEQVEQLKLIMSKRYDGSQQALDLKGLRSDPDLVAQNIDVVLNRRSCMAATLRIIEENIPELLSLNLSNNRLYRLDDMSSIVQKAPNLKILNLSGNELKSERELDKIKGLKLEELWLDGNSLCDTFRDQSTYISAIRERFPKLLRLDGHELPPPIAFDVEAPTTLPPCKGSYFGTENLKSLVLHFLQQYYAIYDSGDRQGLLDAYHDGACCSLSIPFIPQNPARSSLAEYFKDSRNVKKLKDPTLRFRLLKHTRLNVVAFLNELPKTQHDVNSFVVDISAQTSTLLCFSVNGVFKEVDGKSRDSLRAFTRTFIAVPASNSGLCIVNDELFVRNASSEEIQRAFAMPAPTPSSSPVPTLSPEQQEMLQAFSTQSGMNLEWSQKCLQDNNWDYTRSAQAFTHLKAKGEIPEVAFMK
B5: Retinoic acid receptor alpha (Homo sapiens), P10276 (parent)
chain: MASNSSSCPTPGGGHLNGYPVPPYAFFFPPMLGGLSPPGALTTLQHQLPVSGYSTPSPATIETQSSSSEEIVPSPPSPPPLPRIYKPCFVCQDKSSGYHYGVSACEGCKGFFRRSIQKNMVYTCHRDKNCIINKVTRNRCQYCRLQKCFEVGMSKESVRNDRNKKKKEVPKPECSESYTLTPEVGELIEKVRKAHQETFPALCQLGKYTTNNSSEQRVSLDIDLWDKFSELSTKCIIKTVEFAKQLPGFTTLTIADQITLLKAACLDILILRICTRYTPEQDTMTFSDGLTLNRTQMHNAGFGPLTDLVFAFANQLLPLEMDDAETGLLSAICLICGDRQDLEQPDRVDMLQEPLLEALKVYVRKRRPSRPHMFPKMLMKITDLRSISAKGAERVITLKMEIPGSMPPLIQEMLENSEGLDTLSGQPGGGGRDGGGLAPPPGSCSPSLSPSSNRSSPATHSP
partner: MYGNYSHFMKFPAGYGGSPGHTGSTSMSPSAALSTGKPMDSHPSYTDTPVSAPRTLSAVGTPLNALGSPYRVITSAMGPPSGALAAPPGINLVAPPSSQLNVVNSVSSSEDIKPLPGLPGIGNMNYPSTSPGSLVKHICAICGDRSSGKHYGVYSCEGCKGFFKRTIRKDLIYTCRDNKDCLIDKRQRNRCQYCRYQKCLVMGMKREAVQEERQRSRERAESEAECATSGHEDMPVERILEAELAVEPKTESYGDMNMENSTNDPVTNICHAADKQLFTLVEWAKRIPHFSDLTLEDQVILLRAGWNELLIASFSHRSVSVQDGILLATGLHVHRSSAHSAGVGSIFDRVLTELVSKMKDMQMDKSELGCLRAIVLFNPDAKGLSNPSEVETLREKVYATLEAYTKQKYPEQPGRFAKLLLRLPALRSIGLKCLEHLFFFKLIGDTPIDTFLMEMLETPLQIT
B6: Four and a half LIM domains protein 2 (Homo sapiens), Q14192 (parent)
chain: MTERFDCHHCNESLFGKKYILREESPYCVVCFETLFANTCEECGKPIGCDCKDLSYKDRHWHEACFHCSQCRNSLVDKPFAAKEDQLLCTDCYSNEYSSKCQECKKTIMPGTRKMEYKGSSWHETCFICHRCQQPIGTKSFIPKDNQNFCVPCYEKQHAMQCVQCKKPITTGGVTYREQPWHKECFVCTACRKQLSGQRFTARDDFAYCLNCFCDLYAKKCAGCTNPISGLGGTKYISFEERQWHNDCFNCKKCSLSLVGRGFLTERDDILCPDCGKDI
partner: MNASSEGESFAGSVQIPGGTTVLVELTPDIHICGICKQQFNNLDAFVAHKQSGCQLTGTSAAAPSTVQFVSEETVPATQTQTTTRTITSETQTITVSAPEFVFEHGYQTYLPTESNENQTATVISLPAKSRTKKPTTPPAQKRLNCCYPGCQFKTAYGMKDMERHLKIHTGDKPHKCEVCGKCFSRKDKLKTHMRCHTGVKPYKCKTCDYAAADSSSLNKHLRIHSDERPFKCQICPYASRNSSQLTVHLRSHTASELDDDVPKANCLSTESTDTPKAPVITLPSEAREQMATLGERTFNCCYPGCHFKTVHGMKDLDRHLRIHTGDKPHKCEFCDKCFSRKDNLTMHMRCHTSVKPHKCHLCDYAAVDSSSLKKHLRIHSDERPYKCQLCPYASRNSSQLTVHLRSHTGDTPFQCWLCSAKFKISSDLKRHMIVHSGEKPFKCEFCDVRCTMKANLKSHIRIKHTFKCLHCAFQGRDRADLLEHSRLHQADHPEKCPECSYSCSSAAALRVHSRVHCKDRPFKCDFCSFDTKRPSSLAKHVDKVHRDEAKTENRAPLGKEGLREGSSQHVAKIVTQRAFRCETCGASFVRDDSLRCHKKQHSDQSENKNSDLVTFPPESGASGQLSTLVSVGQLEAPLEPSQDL
B7: N-chimaerin (Homo sapiens), P15882 (parent)
chain: MALTLFDTDEYRPPVWKSYLYQLQQEAPHPRRITCTCEVENRPKYYGREFHGMISREAADQLLIVAEGSYLIRESQRQPGTYTLALRFGSQTRNFRLYYDGKHFVGEKRFESIHDLVTDGLITLYIETKAAEYIAKMTINPIYEHVGYTTLNREPAYKKHMPVLKETHDERDSTGQDGVSEKRLTSLVRRATLKENEQIPKYEKIHNFKVHTFRGPHWCEYCANFMWGLIAQGVKCADCGLNVHKQCSKMVPNDCKPDLKHVKKVYSCDLTTLVKAHTTKRPMVVDMCIREIESRGLNSEGLYRVSGFSDLIEDVKMAFDRDGEKADISVNMYEDINIITGALKLYFRDLPIPLITYDAYPKFIESAKIMDPDEQLETLHEALKLLPPAHCETLRYLMAHLKRVTLHEKENLMNAENLGIVFGPTLMRSPELDAMAALNDIRYQRLVVELLIKNEDILF
partner: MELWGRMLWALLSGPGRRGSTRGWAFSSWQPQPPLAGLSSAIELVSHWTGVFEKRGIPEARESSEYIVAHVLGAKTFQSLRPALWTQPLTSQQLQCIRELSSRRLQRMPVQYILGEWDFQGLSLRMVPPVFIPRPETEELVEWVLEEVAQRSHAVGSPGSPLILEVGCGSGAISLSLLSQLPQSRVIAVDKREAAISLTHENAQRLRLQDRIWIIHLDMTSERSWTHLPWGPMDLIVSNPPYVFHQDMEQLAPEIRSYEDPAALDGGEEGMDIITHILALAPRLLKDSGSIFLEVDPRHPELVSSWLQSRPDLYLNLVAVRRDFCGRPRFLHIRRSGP

Variants of: B1
Conditions: with rasf5_human RASSF5, Q8WWW0

Row | Variant | effect of a mutation on the interaction
1 | N342S | with no effect

Variants of: B2
Conditions: with aakb2_human PRKAB2, O43741
aakb2_human PRKAB2, O43741, sequence (O43741 whole entry): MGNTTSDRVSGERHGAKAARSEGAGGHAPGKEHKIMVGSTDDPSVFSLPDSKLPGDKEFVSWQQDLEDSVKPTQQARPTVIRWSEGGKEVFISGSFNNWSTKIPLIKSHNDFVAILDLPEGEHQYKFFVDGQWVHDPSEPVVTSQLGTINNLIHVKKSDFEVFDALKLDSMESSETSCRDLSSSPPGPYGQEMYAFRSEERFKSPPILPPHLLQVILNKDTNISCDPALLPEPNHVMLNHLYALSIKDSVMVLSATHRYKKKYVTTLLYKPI

Row | Variant | effect of a mutation on the interaction
2 | Q40R | with no effect
3 | H45R | with no effect

Variants of: B2
Conditions: with rab2a_human RAB2A

Row | Variant | effect of a mutation on the interaction
4 | Q40R | with no effect
5 | H45R | with no effect

Variants of: B2
Conditions: with zbt24_human ZBTB24, O43167
zbt24_human ZBTB24, O43167, sequence (O43167 whole entry): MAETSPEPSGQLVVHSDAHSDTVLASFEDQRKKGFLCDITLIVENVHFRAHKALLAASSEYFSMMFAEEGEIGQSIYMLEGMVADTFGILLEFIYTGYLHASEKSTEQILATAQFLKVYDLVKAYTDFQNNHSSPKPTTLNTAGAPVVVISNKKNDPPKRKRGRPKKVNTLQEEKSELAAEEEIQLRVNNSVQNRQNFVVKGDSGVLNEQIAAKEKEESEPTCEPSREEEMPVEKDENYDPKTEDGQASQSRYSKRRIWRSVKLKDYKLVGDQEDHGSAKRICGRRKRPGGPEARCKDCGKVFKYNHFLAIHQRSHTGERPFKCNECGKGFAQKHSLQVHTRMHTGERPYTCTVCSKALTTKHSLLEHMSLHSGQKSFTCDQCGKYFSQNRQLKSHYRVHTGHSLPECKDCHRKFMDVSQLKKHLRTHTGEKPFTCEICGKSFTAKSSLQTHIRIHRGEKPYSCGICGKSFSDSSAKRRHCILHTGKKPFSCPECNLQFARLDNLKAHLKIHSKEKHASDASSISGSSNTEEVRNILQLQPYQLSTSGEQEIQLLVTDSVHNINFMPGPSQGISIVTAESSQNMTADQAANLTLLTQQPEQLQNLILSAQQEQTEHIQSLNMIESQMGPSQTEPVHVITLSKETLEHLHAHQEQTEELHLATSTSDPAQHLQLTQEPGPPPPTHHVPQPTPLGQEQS

Row | Variant | effect of a mutation on the interaction
6 | Q40R | with no effect
7 | H45R | with no effect

Variants of: B3
Conditions: with tha10_human THAP10, Q9P2Z0
tha10_human THAP10, Q9P2Z0, sequence (Q9P2Z0 whole entry): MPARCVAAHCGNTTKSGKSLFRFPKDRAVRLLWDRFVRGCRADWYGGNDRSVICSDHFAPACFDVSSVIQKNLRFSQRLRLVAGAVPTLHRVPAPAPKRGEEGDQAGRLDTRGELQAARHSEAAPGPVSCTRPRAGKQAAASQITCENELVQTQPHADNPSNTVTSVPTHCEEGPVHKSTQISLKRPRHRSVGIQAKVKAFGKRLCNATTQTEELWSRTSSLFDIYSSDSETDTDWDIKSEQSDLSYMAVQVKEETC

Row | Variant | effect of a mutation on the interaction
8 | N33S | with no effect

Variants of: B4
Conditions: with nxf1_human NXF1, Q9UBU9

Row | Variant | effect of a mutation on the interaction
9 | L12H | disrupting interaction strength

Variants of: B5
Conditions: with rxrg_human RXRG

Row | Variant | effect of a mutation on the interaction
10 | P318R | with no effect

Variants of: B6
Conditions: with zf64b_human ZFP64, Q9NTW7

Row | Variant | effect of a mutation on the interaction
11 | N95K | with no effect
12 | A37S | with no effect

Variants of: B7
Conditions: with hemk1_human HEMK1, Q9Y5R4

Row | Variant | effect of a mutation on the interaction
13 | D115N | disrupting interaction strength
